This note sets out measurements from patent US20260035464A1 (STAIDSON BIOPHARMA, published 2026).

Where a chain is given by its changes, count along the chain named.

A word on the Kd: it is the concentration at which binding is half-saturated. Usually koff stands for a measure of how fast the partners let go of each other. Usually kon stands for the second-order rate constant of association. What is called EC50 is the concentration that produces a half-maximal response. For orientation: IC50 means the concentration needed to halve the response being measured. A word on the EC50 (read off the curve): it is the concentration needed to bring the measured effect to its halfway point.

Experiment [1] concerns the target T1, human BTLA extracellular domain with C-terminal 10xHis tag (human, UniProt Q7Z6A9 31-157).
T1 construct: also called HuBTLA-His; His-tag-huBTLA
T1 sequence: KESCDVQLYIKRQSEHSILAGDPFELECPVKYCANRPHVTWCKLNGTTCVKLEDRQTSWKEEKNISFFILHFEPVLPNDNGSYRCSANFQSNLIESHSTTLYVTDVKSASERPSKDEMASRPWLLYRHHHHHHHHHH
Briefly: BLI (Octet RED96), antibody captured on AHC biosensor, His-tag-huBTLA in solution, 1:1 model. The procedure:
(§1) The following kinetic assay was performed using anti-human IgG Fc capture (AHC) biosensors (ForteBio) in kinetics buffer (PBS, 0.1% Tween-20 and 1% bovine serum albumin): (a) antibody (2 μg/mL) for 300 sec, (b) baseline for 120 sec, (c) association with purified His-tag-huBTLA (2.5, 0.5 and 0 μg/mL) and His-tag-rhesus monkey BTLA (Sino Biologcal, cat #90250-C08H) (2.5, 0.5 and 0 μg/mL) for 420 sec and (d) dissociation for 1200 sec. Data fitting and analysis was performed with Octet data analysis software 8.0 (ForteBio) using a 1:1 binding model after Savitzky-Golay filtering.

Experiment [2] deals with T2, rhesus monkey BTLA extracellular domain protein with His tag (Sino Biological, cat #90250-C08H) (rhesus monkey, UniProt G7MKA9 31-157).
T2 construct: extracellular domain; Bought protein; also called His-tag-rhesus monkey BTLA; not shown: His tag
T2 sequence: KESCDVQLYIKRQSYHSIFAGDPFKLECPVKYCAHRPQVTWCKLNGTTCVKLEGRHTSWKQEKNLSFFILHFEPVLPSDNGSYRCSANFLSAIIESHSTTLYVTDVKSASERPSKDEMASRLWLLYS
Put plainly: ELISA, rhesus monkey BTLA coated at 0.333 ug/mL, anti-human IgG Fc-AP detection. On the procedure:
(§2) BTLA binding of purified recombinant chimeric antibodies by ELISA: The huBTLA and rhesus monkey BTLA antigen binding ELISA was performed on the purified recombinant chimeric antibodies. Briefly, 384-well, clear flat bottom high binding plates (Corning, cat #3700) were coated overnight at 4° C. with 0.333 μg/mL of huBTLA or rhesus monkey BTLA in PBS. The following purified process was performed as described in ELISA binding assay in Example 2, except that the secondary antibody was goat anti human IgG Fc-AP (Southern Biotech, cat #2014-04).

Experiment [3] has as its target T3, human BTLA extracellular domain with C-terminal mouse IgG2a Fc tag (human; mouse, UniProt Q7Z6A9 31-157).
T3 construct: also called huBTLA with mIgG2a Fc tag; not shown: mouse IgG2a Fc, C-terminal
T3 sequence: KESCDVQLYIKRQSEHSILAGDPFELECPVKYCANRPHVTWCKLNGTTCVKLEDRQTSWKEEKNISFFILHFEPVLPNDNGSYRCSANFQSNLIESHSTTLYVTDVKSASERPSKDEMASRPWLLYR
Briefly: blocking ELISA, huBTLA-mIgG2a Fc coated; competitor huHVEM-His (2 ug/ml). On the procedure: HVEM blocking by purified recombinant chimeric antibodies by ELISA: Human HVEM (huHVEM) blocking ELISA was performed on purified recombinant chimeric anti-BTLA antibodies. Briefly, 384-well, clear flat bottom high binding plates (Corning, cat #3700) were coated overnight at 4° C. with 0.333 μg/mL purified huBTLA with mIgG2a Fc tag in PBS (coating solution). After removing the coating solution, the plates were blocked by adding blocking buffer and incubated at 37° C. for 1 hour. Plates were then washed 3 times with wash buffer. Serial dilution of purified chimeric antibodies in PBS were added to individual well followed by incubation at 37° C. for 1 hour. Plates were washed 3 times with wash buffer. Then 30 μL per well of 2 μg/ml human HVEM with His tag (Sino Biological, cat #10334-H08H) in assay buffer was added into the reaction and incubated for 1 hour. Plates were washed 3 times with wash buffer. Then 30 μL per well of mouse anti-his-AP (Southern Biotech, cat: 4603-04) at 1:500 dilution in ELISA diluent was added, and incubated at 37° C. for 30 min, then the plates were washed 5 times with wash buffer and developed for 30 minutes with 30 μL per well of pNPP substrate. Plates were analyzed with a Bio-TEK at 405 nm. The blocking IC₅₀ value represents the antibody concentration that inhibited 50% of huHVEM binding to coated human BTLA.

For experiment [4], the target named is T2, rhesus monkey BTLA extracellular domain …. Put plainly: ELISA, plate coated with rhesus monkey BTLA, detection with goat anti-human IgG Fc-AP, OD405. The procedure:
as §2
Background: In an ELISA, binding on a coated surface is turned into a signal by an enzyme label.

The target in experiment [5] is T4, huBTLA as coated in the binding ELISA of Example 3 (tag not stated) (human, UniProt Q7Z6A9 31-157).
T4 construct: Detection was with anti-human IgG Fc
T4 sequence: T3 sequence
Briefly: ELISA, huBTLA coated at 0.333 ug/mL, anti-human IgG Fc-AP detection. The procedure: as §2

For experiment [6], the target named is T5, human BTLA (Uniprot Q7Z6A9) expressed on cells (human, UniProt Q7Z6A9 31-289). Briefly: cell-based or functional assay.
The target of experiment [7] is T4, huBTLA as coated in the binding ELISA …. Briefly: ELISA, plate coated with huBTLA, detection with goat anti-human IgG Fc-AP, OD405. On the procedure:
as §2

The target of experiment [8] is T1, human BTLA extracellular domain with …. Briefly: BLI (Octet RED96), antibody on AHC biosensor, His-tag-huBTLA in solution. On the procedure:
as §1
(§3) Binding affinities (monovalent Kd) of humanized anti-BTLA antibodies were determined using Biolayer interferometry on the Octet RED96 instrument (ForteBio) as described above in Example 3, except for (c) association with His-tag-huBTLA ([…]) for 420 sec.
(In general: In BLI a coated tip is dipped into the sample, and binding shifts an interference pattern.)

For experiment [9] the target is unchanged. Put plainly: BLI (Octet RED96), antibody on AHC biosensor, His-tag-huBTLA in solution; column head prints nM, but Koff/Kon shows the values are in M. The procedure: as §1, §3
Experiment [10] deals with T5, human BTLA (Uniprot Q7Z6A9) expressed …. Briefly: flow cytometry blocking assay on huBTLA-overexpressing Expi293 cells, antibody titrated, soluble human HVEM-mouse IgG2a Fc detected. On the procedure:
Expi293 cells stably overexpressing huBTLA were incubated with chimeric anti-BTLA antibody 83F2 or 86B7 for 30 minutes at 4° C. The cells were washed, and then incubated with human HVEM-mouse IgG2a Fc recombinant protein (Acro Biosystems, cat #HVM-H5255) at […] concentration for 20 minutes at 4° C. The human HVEM bindings were detected by goat anti-mouse Alexa 488 secondary antibody (ThermoFisher, cat #A-11029). Cells were washed and acquired by flow cytometry with Attune. Data were analyzed with FlowJo software. BTLA binding is represented as MFI.
FACS based blocking assays of humanized anti-BTLA antibodies were performed as described above in Example 3.
Background: A flow cytometer gives signals particle by particle.

Experiment [11] has the same target. Put plainly: flow cytometry on huBTLA-overexpressing Expi293 cells, MFI. On the procedure:
Expi293 cells stably overexpressing huBTLA were incubated with the chimeric anti-BTLA antibodies 83F2 or 86B7 in PBS containing 0.5% BSA, 1 mM EDTA, and 0.1% sodium azide (FACS buffer) for 30 minutes at 4° C. The cells were washed, and then incubated with 10 nM phycoerythrin (PE) conjugated anti-Human Fc Ab (BioLegend, cat #409304) for 20 minutes at 4° C. Cells were washed and then analyzed by flow cytometry with Attune (ThermoFisher Scientific). Data were analyzed with FlowJo software. Antibody binding is represented as median fluorescence intensity (MFI).
FACS based binding assays of humanized anti-BTLA antibodies were performed as described above in Example 3.

Experiment [12] has as its target T6, extracellular domain of human BTLA with FAS, expressed on Jurkat cells (human, UniProt Q7Z6A9 31-157; P25445 174-335, limits assumed).
T6 sequence (looked up): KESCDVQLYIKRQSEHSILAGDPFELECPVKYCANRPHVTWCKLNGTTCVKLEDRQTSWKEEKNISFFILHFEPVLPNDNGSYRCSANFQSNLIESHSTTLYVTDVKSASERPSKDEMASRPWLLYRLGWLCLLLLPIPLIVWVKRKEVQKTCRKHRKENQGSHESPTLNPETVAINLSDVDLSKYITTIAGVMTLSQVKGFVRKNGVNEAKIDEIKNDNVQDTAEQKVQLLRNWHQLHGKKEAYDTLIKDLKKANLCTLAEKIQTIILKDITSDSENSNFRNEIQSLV
Put plainly: cell-based or functional assay.

Experiment [13] deals with T5, human BTLA (Uniprot Q7Z6A9) expressed …. Briefly: cell-based or functional assay. The source holds these as a separate data set.

B1: chimeric anti-BTLA antibody 96F11 (antibody, V domains shown)
VH: EVQLQQSGAELVKPGASVELSCTASGFNIKDTYIYWVKQRPEQGLQWIGRIDPANGHTKYDPRFQDKATLTAEISSNTAHLQLNSLTSEDTAVYFCVRGGDHPYYVMDWWGQGTSVTVSS
VL: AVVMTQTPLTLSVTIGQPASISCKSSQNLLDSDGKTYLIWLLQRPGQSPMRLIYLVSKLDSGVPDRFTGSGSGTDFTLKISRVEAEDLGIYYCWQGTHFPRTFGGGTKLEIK
As for B1, binding in experiment [1] was put at a Kd of 1.18 nM. Besides, the koff in experiment [1] was found to be 0.000697 s⁻¹. In experiment [1], the kon came out at 607000 M⁻¹ s⁻¹. For the same molecule, the half-maximal effective concentration (EC50) is 0.057 nM in [2] and 0.0482 nM in experiment [5]. Also, the half-maximal inhibitory concentration (IC50) in [3] was found to be 1.04 nM. The “EC50 (read off the curve)” value was around 0.4 nM in experiment [4] and around 0.3 nM in experiment [7]. Also, in experiment [6], the “EC50 of recovery of IL-2 production, Raji-HVEM/Jurkat-BTLA coculture” value was 2.54 nM.

B2: humanized anti-BTLA antibody SB2003-4 (antibody, V domains shown)
VH: QITLKESGPTLVKPTQTLTLTCTFSGFSLSTFGMGVSWIRQPPGKALEWLAHIYWDDDKRFNPSLKSRLTITKDTSKNQVVLTMTNMDPVDTATYYCARGNWDGETYFDYWGQGTLVTVSS
VL: DVVMTQSPLSLPVTLGQPASISCKSTQSLLDSDGKTYLNWLQQRPGQSPRSLIYLVSKLDSGVPDRFSGSGSGTDFTLKISRVEAEDVGVYYCWQGTHFPWTFGQGTKVEIK
As to B2, in [8], the off-rate (koff) was 9.19e-05 s⁻¹ and the on-rate constant (kon) is 307000 M⁻¹ s⁻¹. Moreover, the Kd in [9] is 0.312 nM. Further, the “IC50 (read off the curve)” value in experiment [10] was around 0.4 nM. In addition, the concentration for a half-maximal effect (EC50 (read off the curve)) in [11] is around 0.8 nM.

B3: humanized anti-BTLA antibody SB2003-3 (antibody, V domains shown)
VH: B2 VH
VL: B2 VL with L41F
As to B3, in [8], the koff turned out to be 9.48e-05 s⁻¹ and the kon was 291000 M⁻¹ s⁻¹. In experiment [9], this molecule showed a Kd of 0.308 nM. Moreover, the “IC50 (read off the curve)” value in [10] is around 0.4 nM. Further, the “EC50 (read off the curve)” value in [11] is around 0.8 nM.

B4: humanized anti-BTLA antibody SB2003-2 (antibody, V domains shown)
VH: B2 VH
VL: B2 VL with S51R
In [8], B4 displayed a koff of 0.000109 s⁻¹ and an on-rate constant (kon) of 120000 M⁻¹ s⁻¹. Also, binding in [9] was put at a Kd of 0.797 nM.

B5: humanized anti-BTLA antibody SB2003-8 (antibody, V domains shown)
VH: B2 VH with I2V
VL: B2 VL
B5: in experiment [8], the koff turned out to be 8.05e-05 s⁻¹ and the association rate constant (kon) stood at 418000 M⁻¹ s⁻¹. The same molecule had a Kd in experiment [9] of 0.198 nM.

B6: humanized anti-BTLA antibody SB2003-11 (antibody, V domains shown)
VH: B2 VH with I2V, R99H
VL: B2 VL with L41F
B6: the “EC50 of inhibition of huHVEM-Fc-induced apoptosis, Jurkat-huBTLA-FAS cells (ATP luminescence)” value in experiment [12] is 0.117 nM. For the same molecule, in experiment [8], the koff is 4.99e-05 s⁻¹ and the on-rate constant (kon) was found to be 384000 M⁻¹ s⁻¹. For the same molecule, the “EC50 of recovery of IL-2 production, Raji-HVEM/primary human T cell coculture” value in [13] came to 2.31 nM. This molecule showed a Kd in experiment [9] of 0.128 nM. The “IC50 (read off the curve)” value in experiment [10] was around 0.4 nM. Moreover, the “EC50 (read off the curve)” value in [11] is around 0.8 nM.

B7: humanized anti-BTLA antibody SB2003-9 (antibody, V domains shown)
VH: B2 VH with R99H
VL: B2 VL with L41F
As to B7, in experiment [8], the dissociation rate constant (koff) stood at 6.5e-05 s⁻¹ and the kon worked out at 440000 M⁻¹ s⁻¹. In addition, in experiment [9], the Kd came out at 0.148 nM.

B8: humanized anti-BTLA antibody SB2003-6 (antibody, V domains shown)
VH: B2 VH with I2V
VL: B2 VL with S51R
For the molecule B8, in [8], the koff was 8.06e-05 s⁻¹ and the kon was found to be 134000 M⁻¹ s⁻¹. The molecule also showed a Kd in experiment [9] of 0.604 nM.

B9: humanized anti-BTLA antibody SB2003-7 (antibody, V domains shown)
VH: B2 VH with I2V
VL: B2 VL with L41F
As to B9, in experiment [8], the koff amounted to 5.76e-05 s⁻¹ and the on-rate (kon) was 366000 M⁻¹ s⁻¹. This molecule came in with a dissociation constant (Kd) in [9] of 0.154 nM.

B10: humanized anti-BTLA antibody SB2003-10 (antibody, V domains shown)
VH: B2 VH with R99H
VL: B2 VL
In experiment [8], B10 yielded an off-rate (koff) of 0.000179 s⁻¹ and a kon of 356000 M⁻¹ s⁻¹. This molecule also showed a Kd in [9] of 0.551 nM.
